Experimental data from patent US20140178293A1, “METHODS FOR IMAGING BONE PRECURSOR CELLS USING DUAL-LABELED IMAGING AGENTS TO DETECT MMP-9 POSITIVE CELLS” (BAYLOR COLLEGE OF MEDICINE, priority 2011, published 2014).
Where two headings read alike, the source gives them in different places. Positions of bridges follow the written chain, without caps; N, C: chain ends. No end group written: not given here. *: point of attachment. DOTA = O=C(O)CN1CCN(CC(=O)O)CCN(CC(=O)*)CCN(CC(=O)O)CC1

Columns and labels:
in vitro = in vitro ADME; conditions: mouse, serum
Protocol: (§1) After radiolabeling, 150 μl of ^64Cu-M2 was diluted in equal volumes of PBS or DTPA solution and kept at room temperature. Aliquots were taken at 0, 2, 6 and 24 hrs post-incubation and analyzed by radio-HPLC. To evaluate serum stability, 150 μl of ^64Cu-M2 was added to 150 μl of 50% mouse serum and incubated at 37° C. An 80 μl aliquot was taken at each of the above-mentioned time points and added to 160 μl ice-cold acetonitrile. The samples were centrifuged at 14,000 g for 5 min and the supernatant was collected and analyzed by radio-HPLC.

MMP-9 [1] = biological target: T1, MMP-9 (Mus musculus, UniProt P41245)
[2] = in vitro stability of ^64Cu-M2 in PBS or 500-fold excess DTPA (radio-HPLC); type: physicochemical; conditions: room temperature, normalized to 100% at t=0
Protocol: as §1

MMP-9 [3] = biological target: T1, MMP-9; assay: in vivo NIR fluorescence imaging of ^64Cu-M2 in murine model of BMP-2 induced HO; set-up: injected intramuscularly into each hind limb quadriceps muscle of nonobese diabetic/severely compromised immunodeficient (NOD/SCID) mice; from tissue; host or cells: hind limb muscle of living NOD/SCID mice injected with AdBMP2- or Adempty-transduced human fibroblasts
Protocol: NIR fluorescence images were acquired using custom-built fluorescence imaging systems (Houston et al., 2005) 18 hours after intravenous administration of ^64Cu-M2. Briefly, a field of view was illuminated with 785 nm of light from a laser diode, outfitted with a convex lens and diffuser to create a uniform excitation field. The fluorescence was collected through holographic and interference filters placed before a Nikon camera lens. The images were finally captured by an electron-multiplying charge-coupled device camera (PhotonMax 512; Princeton Instruments, Princeton, N.J.) with 200 to 400 milliseconds of integration time. For acquisition of white-light images, the optical filters were removed, and a low-power lamp illuminated the subject. Image acquisition was accomplished by V++ software (Aukland, New Zealand).

[4] = aqueous solution, 785/830 nm, used as standard; cited from earlier work
[5] = characterization of fluorescent properties; type: physicochemical
Protocol: Fluorescence intensity of the fluorophores was determined using the Fluorolog Tau-3 Spectrofluorometer (Horiba Jobin Yvon, Edison, N.J.) with excitation from a xenon arc lamp and absorbance was recorded using the DU-800 Spectrophotometer (Beckman Coulter, Brea Calif.). Fluorescence excitation and emission spectra were obtained at wavelengths of 785 and 830 nm respectively, with an integration time of 0.3 seconds for 1 μM solutions of IRDye 800CW, M2 and ^68Ga-M2 (n=4). Fluorescence measurements for IRDye 800CW and M2 were performed in aqueous solution under ambient conditions, whereas ^68Ga-M2 was prepared as previously described in NaOAc (pH 4) to provide an accurate representation of the ^68Ga-labeling scheme. Extinction coefficients were determined from the slope of absorbance at 785 nm as a function of the concentration of serial dilutions of each agent. Fluorescence quantum yield was determined by the comparative method of Williams et al. (Williams et al., 1983) using the quantum yield of ICGO (Φ=0.016) at 785/830 nm as a standard.

[6] = biological target: MMP-9 (AnaSpec, Fremont, Calif.) (UniProt P14780 107-707, limits assumed); assay: cell-based or functional assay
[7] = biological target: MMP-9 in mouse hind limb tissue (BMP-2 induced HO model, NOD/SCID mice) (mouse, UniProt P41245 108-730, limits assumed); assay: cell-based or functional assay
[8] = 4 days post-implantation with 200x M1 as blocking (24 hours prior)
[9] = 1 μM solutions, IRDye 800CW and M2 aqueous, ^68Ga-M2 in NaOAc pH 4

T1 sequence (P41245 108-730): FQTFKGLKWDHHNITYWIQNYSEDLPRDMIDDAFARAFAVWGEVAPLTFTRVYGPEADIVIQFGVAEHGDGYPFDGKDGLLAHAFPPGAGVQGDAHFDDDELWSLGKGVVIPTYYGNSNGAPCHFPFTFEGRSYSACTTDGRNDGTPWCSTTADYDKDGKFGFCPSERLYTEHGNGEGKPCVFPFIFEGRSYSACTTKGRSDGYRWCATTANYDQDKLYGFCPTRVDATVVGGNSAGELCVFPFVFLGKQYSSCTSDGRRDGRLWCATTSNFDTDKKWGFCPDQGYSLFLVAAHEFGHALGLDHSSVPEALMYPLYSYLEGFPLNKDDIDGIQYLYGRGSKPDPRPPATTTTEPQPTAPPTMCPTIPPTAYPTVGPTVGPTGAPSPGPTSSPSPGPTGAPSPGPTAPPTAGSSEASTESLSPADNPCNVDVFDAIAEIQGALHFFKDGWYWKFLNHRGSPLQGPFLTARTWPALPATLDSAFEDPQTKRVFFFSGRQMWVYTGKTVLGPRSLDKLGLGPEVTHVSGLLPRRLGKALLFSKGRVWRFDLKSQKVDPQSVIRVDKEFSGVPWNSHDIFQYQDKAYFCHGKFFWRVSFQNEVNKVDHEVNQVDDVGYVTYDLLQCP
MMP-9 in mouse hind limb tissue (BMP-2 induced HO model, NOD/SCID mice), sequence (P41245 108-730 limits assumed): as the sequence (P41245 108-730) above
MMP-9 (AnaSpec, Fremont, Calif.), sequence (P14780 107-707 limits assumed): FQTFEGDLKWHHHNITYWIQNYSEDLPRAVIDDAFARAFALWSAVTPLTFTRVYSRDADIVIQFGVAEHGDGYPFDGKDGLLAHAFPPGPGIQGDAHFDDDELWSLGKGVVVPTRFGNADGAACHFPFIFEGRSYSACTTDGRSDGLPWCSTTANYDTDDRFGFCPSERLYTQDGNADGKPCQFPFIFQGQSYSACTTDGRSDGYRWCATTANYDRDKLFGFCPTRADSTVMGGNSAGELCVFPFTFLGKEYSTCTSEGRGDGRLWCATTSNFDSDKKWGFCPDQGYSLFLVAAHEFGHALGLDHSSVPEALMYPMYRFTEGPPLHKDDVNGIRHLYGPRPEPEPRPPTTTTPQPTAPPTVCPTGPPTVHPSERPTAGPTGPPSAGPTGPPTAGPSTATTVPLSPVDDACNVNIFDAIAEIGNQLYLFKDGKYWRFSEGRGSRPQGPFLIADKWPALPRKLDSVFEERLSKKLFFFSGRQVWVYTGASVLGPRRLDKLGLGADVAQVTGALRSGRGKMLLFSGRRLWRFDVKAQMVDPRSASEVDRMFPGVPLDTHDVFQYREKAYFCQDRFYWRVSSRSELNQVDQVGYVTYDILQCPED

Molecule: CC(C)C[C@@H]1NC(=O)[C@H]([C@@H](C)O)NC(=O)[C@H](Cc2ccccc2)NC(=O)CNC(=O)[C@H](Cc2c[nH]c3ccccc23)NC(=O)[C@H](Cc2c[nH]cn2)NC(=O)[C@H](C)NC(=O)[C@@H](NC(=O)[C@H](CCCCNC(=O)CCCCC[N+]2=C(C=CC3=C(Oc4ccc(S(=O)(=O)O)cc4)C(=CC=C4N(CCCCS(=O)(=O)O)c5ccc(S(=O)(=O)O)cc5C4(C)C)CCC3)C(C)(C)c3cc(S(=O)(=O)[O-])ccc32)NC(=O)CN2CCN(CC(=O)O)CCN(CC(=O)O)CCN(CC(=O)O)CC2)CCCCNC(=O)C[C@@H](C(=O)O)NC1=O (single isomer, unassigned) [^64Cu-M2, metal not drawn]
- remaining at 2 h (in vitro): 99.6 ± 0.6%
- remaining at 6 h (in vitro): 94.8 ± 0.6%
- remaining at 24 h (in vitro): 53.7 ± 3.7%
- Target/background ratio (PET/CT) (MMP-9 [1]; 2 days post-implantation, 200 μCi, 6 nmol i.v.): 3.29±0.9
- Target/background ratio (PET/CT) (MMP-9 [1]; [8]): 1.44±0.66
- Target/background ratio (PET/CT) (MMP-9 [1]; 4 days post-implantation, 200 μCi, 6 nmol i.v.): 4.02±1.39
- Target/background ratio (PET/CT) (MMP-9 [1]; 6 days post-implantation, 200 μCi, 6 nmol i.v.): 3.41±0.51
- % injected dose/g (PET/CT) (MMP-9 [1]; NOD/SCID, mouse, in vivo, iv, 6 nmol): 0.61 ± 0.04 % injected dose/g
- whole-body distribution (MMP-9 [1]; mouse, in vivo, iv): slow clearance from circulation along with uptake in the liver and kidneys
- percentage of intact component ([2]; DTPA, 2 hrs): 97.8 ± 1.3%
- percentage of intact component ([2]; DTPA, 6 hrs): 97.7 ± 0.6%
- percentage of intact component ([2]; DTPA, 24 hrs): 96.4±1.1%
- percentage of intact component ([2]; PBS, 24 hrs): 98.9 ± 1.5%
- Target/background ratio (NIR) (MMP-9 [3]; 2 days post-implantation, 18 hours after i.v. administration): 1.13 ± 0.03
- Target/background ratio (NIR) (MMP-9 [3]; [8]): 1.13 ± 0.18
- Target/background ratio (NIR) (MMP-9 [3]; 4 days post-implantation, 18 hours after i.v. administration): 1.24 ± 0.05
- Target/background ratio (NIR) (MMP-9 [3]; 6 days post-implantation, 18 hours after i.v. administration): 1.10 ± 0.03

Molecule: CC1(C)C(/C=C/C=C/C=C/C=C2\N(CCCCS(=O)(=O)O)c3ccc4ccccc4c3C2(C)C)=[N+](CCCCS(=O)(=O)[O-])c2ccc3ccccc3c21 [ICG, indocyanine green]
- quantum yield of standard [4]: 0.016

Molecule: CC1(C)C(=CC=C2CCCC(C=CC3=[N+](CCCCCC(=O)[O-])c4ccc(S(=O)(=O)[O-])cc4C3(C)C)=C2Oc2ccc(S(=O)(=O)[O-])cc2)N(CCCCS(=O)(=O)[O-])c2ccc(S(=O)(=O)[O-])cc21.[Na+].[Na+].[Na+].[Na+] [IRDye 800CW, reference compound]
- Emission maximum [5, 9]: 830 nm
- Excitation wavelength [5, 9]: 785 nm
- Quantum yield ([5]; 785/830 nm, relative to ICG (Φ=0.016)): 0.034
- Extinction coefficient ([5]; absorbance at 785 nm, serial dilutions, mean ± SD (n=4)): 181,458 ± 2,189 M^−1cm^−1

Molecule: (lactam 2,10) DOTA-KKAHWGFTLD ({DOTA}-KKAHWGFTLD; lactam 2-10) [M1]
- bone formation by μCT after blocking dose (MMP-9 [1]; 200-fold excess of M1, μCT after 7 days): still exhibited bone formation

Molecule: {DOTA}-KKAHWGFTLD (lactam 2-10; also: IRDye 800CW conjugated through an amine, site not given here) [dual-conjugate M2 (M1 conjugated with IRDye 800CW)]
- inhibition of MMP-9 by gelatin zymography [6]: 10 fold decrease compared to M1

B1: ^64Cu-M2 (peptide)
peptide: {DOTA}-KKAHWGFTLD
modifications: lactam 2-10; also: DOTA chelating 64Cu, IRDye 800CW conjugated through a reactive amine group
- Target/background ratio (NIR), day 2 post-implantation [7]: 1.13 ratio
- Target/background ratio (NIR), day 4 post-implantation [7]: 1.24 ratio
- Target/background ratio (NIR), day 4 with 200x M1 as blocking [7]: 1.13 ratio
- Target/background ratio (NIR), day 6 post-implantation [7]: 1.1 ratio
- Target/background ratio (PET/CT), day 2 post-implantation [7]: 3.29 ratio
- Target/background ratio (PET/CT), day 4 post-implantation [7]: 4.02 ratio
- Target/background ratio (PET/CT), day 4 with 200x M1 as blocking [7]: 1.44 ratio
- Target/background ratio (PET/CT), day 6 post-implantation [7]: 3.41 ratio
